Sequences and labels used below:
B1: HDV Ribozyme (parent)
chain: GGCCGGCAUGGUCCCAGCCUCCUCGCUGGCGCCGGCUGGGCAACAUUCCGAGGGGACCGUCCCCUCGGUAAUGGCGAAUGGGACCCA

The data set covers variants of B1. Description: self-cleavage, relative activity (ratio to wild type); higher = more cleavage; co-transcriptional.
Regarding C26A U65C, the self-cleavage was determined as 1.21. The same measure for G25A U60A: 0.295. The same measure for G25A U60C: 0.138; for C26A G59A: 1; for G25A A78G: 0.0339. For G25C A77G the value was 0.111; for G25C G55U, 0.089; for C26A G31C, 0.453. With C26A G31A, the self-cleavage came out at 0.818. In the case of G25U C57G, the self-cleavage was 0.208. The same measure for G25U C57A: 0.192.

For the variant G25C C57G, the self-cleavage was 0.119. For C26A U37G the value was 0.19; for C26A U37A, 0.166; for G25A C61A, 0.201. With G25A G82U, the self-cleavage is 0.119. For G25A G34C the value was 0.229; for G25A G34A, 0.0863. The same measure for C26G C30G: 0; for C24U G55C: 0.729; for C26U G50U: 1.12. For C26U G50C the value was 1; for G25A C32U, 0.169. For the variant G25U G52C, the self-cleavage is 0.208.

Turning to G25C C64G, the self-cleavage came out at 0.0573. For G25U G59A the value was 0.104; for G25U G59C, 0.0997. The same measure for G25U G59U: 0.0511; for C26A A51G: 1.11.

As to G25C G28U, the self-cleavage stood at 0.119. For the variant G25C G28C, the self-cleavage turned out to be 0. For the variant C26U A45U, the self-cleavage came out at 0.77. Turning to G25U C63A, the self-cleavage amounted to 0.0791. For G25U C63G the value was 0.203; for G25U C63U, 0.163. Consider C26A U27C, for which the self-cleavage was found to be 1.04.

Consider C26A U27G, for which the self-cleavage came to 0.733. For G25U C62U the value was 0.0615; for C26G A78C, 0; for C26A G52C, 0.872. For G25C G34A the value was 0.143. With C26G U72G, the self-cleavage came out at 0.755. As to C26G U72A, the self-cleavage was 0.615. For G25C G40U, the self-cleavage worked out at 0.0563.

On to G25C G40C, for which the self-cleavage worked out at 0.156. The same measure for C26A A71C: 1.07.

Consider C26U C30G, for which the self-cleavage was determined as 0.0941.

C26G A83G: the self-cleavage worked out at 0.851. The same measure for C26G A83U: 0.917; for C26A G54U: 1.03; for C26A G55U: 1.17. For C26A G55C the value was 0.862; for C24U G39C, 0.0302. The same measure for C24U G39U: 0.111. Take G25A G68C: the self-cleavage came to 0.253.

On to G25A C41U, for which the self-cleavage was 0.155. Consider G25C A87G, for which the self-cleavage was found to be 0.174. For C26U C63G the value was 0.883; for G25A G53C, 0.248; for G25A G53A, 0.245.

Turning to C26G G74C, the self-cleavage was 0.0573. The same measure for C26G G74A: 0.441; for U27A C33A: 0.256. For U27A C33U the value was 1.01; for U27A A51C, 0.86; for G25A A77C, 0.0978. The same measure for G25U G67C: 0.277; for G25U C30A: 0.158; for G25U C30G: 0.148. Turning to C26G G55C, the self-cleavage came out at 1.04.

As to C26U C62U, the self-cleavage was 1.1.

C26U C62G: the self-cleavage amounted to 0.618. For C26U C62A the value was 1.08; for C26A G40U, 0.946. Take G25C U72G: the self-cleavage was found to be 0.0639. With G25U C85A, the self-cleavage is 0.125. On to G25U C85G, for which the self-cleavage was found to be 0.0755. The same measure for G25C U65A: 0.155. For G25U U27G the value was 0.185; for G25C G82C, 0.0326.

As to G25C G82U, the self-cleavage worked out at 0.0755. For the variant C26A A87U, the self-cleavage stood at 1.21. As for C26U C61U, the self-cleavage is 0.941. Consider C26U C61A, for which the self-cleavage was 1.06.

On to G25U A70C, for which the self-cleavage amounted to 0.237. With C26U U46G, the self-cleavage was 0.787. For C26U U46A the value was 0.731; for C26A U47A, 0.731. For C26A U47G the value was 0.923; for G25C C66G, 0.0978. As to C26A G68C, the self-cleavage was determined as 0.87.

Consider C26A G68U, for which the self-cleavage stood at 0.929. The same measure for U27A C44A: 0.369.

For the variant U27A C44G, the self-cleavage came to 0.289. For G25U U60G the value was 0.229; for C26G G28A, 0.0449; for C26U G81U, 0.439. For C26U G81A the value was 0.888; for G25U G28A, 0; for C26G A56G, 0.795. The same measure for C26U A43C: 0.831. Consider C26U A77C, for which the self-cleavage was found to be 0.883. For C26A A45U the value was 1.19; for C26A A45G, 0.978. For C26A A45C, the self-cleavage came to 0.554. G25A C66A: the self-cleavage came to 0.287. For C26U C41A the value was 1.15.

As to C26A G53U, the self-cleavage amounted to 0.932. For C26G A43G the value was 0.437; for C26U A70U, 1.01; for G25U G80C, 0.0733. With G25C C30U, the self-cleavage was 0.0326. For G25C C30G the value was 0.0959. The same measure for C26G C57U: 1.02; for G25A C48U: 0.264; for G25A G55C: 0.191. The same measure for G25A U72A: 0.158. Regarding G25A G54C, the self-cleavage is 0.138. For G25C G31A the value was 0.135. For C26G G67C the value was 0.8; for C24U G52C, 0.884; for C24U G52U, 0.694. Consider G25U C58U, for which the self-cleavage is 0.217.

For G25U C58G, the self-cleavage stood at 0.18. For C26U C49U the value was 0.89; for C26U C49A, 1.11; for C26U C49G, 0.973. For U27A A78G the value was 0.249; for U27A A78C, 0.0573.

Take G25A A51G: the self-cleavage is 0.269.

For G25U G81U, the self-cleavage worked out at 0.138. The same measure for C24U G68A: 0.831; for C24U G68U: 0.891.

For C24U G68C, the self-cleavage stood at 0.456. The same measure for G25C U27G: 0; for G25C U27C: 0.128. The same measure for G25U G53C: 0.155. For C26A U72C the value was 0.867; for G25A G28A, 0.0482; for G25A G28U, 0.0185. On to G25A G28C, for which the self-cleavage worked out at 0.231. The same measure for C26G G82U: 0.604. Turning to G25A C63U, the self-cleavage came out at 0.289. The same measure for C26A C57U: 0.959; for C26G U65C: 1.16. For G25C U60C the value was 0.0504. Take C26U U47C: the self-cleavage was found to be 1.02.

Consider C26U U27A, for which the self-cleavage came out at 0.886. The same measure for G25A C84A: 0.175; for U27A A56G: 1.08. For C26G G29C the value was 0.0504; for G25A G67A, 0.299; for G25A G67C, 0.277. The same measure for C26G C44U: 1.04; for G25U G34U: 0.026.

Turning to C26U G68U, the self-cleavage came out at 1.13. The same measure for C26U G68A: 1.02; for C26U G68C: 1.03; for G25A G35A: 0.271. For G25U G55U the value was 0.151; for G25C G80U, 0.126; for C24U G76U, 0.917.

Consider C26A C61U, for which the self-cleavage came to 0.974. For C26A C61G, the self-cleavage worked out at 1.04. The same measure for C26A C61A: 0.865; for G25C C85A: 0.0594; for C26A C30A: 0.491.
